Consider 1 substance from patent US20230212285A1.

pKd: −log10 of the molar value.

Test [1] addresses human FcγRI, His6-tagged (human) (UniProt P12314). In words: SPR, 1:1 kinetic. (SPR reads the build-up and loss of mass on a sensor chip optically.)
Test [2] addresses human FcγRIIb, His6-tagged (human) (UniProt P31994). In words: SPR, steady state.

human FcγRI, His6-tagged (human), sequence (P12314 16-288 limits assumed): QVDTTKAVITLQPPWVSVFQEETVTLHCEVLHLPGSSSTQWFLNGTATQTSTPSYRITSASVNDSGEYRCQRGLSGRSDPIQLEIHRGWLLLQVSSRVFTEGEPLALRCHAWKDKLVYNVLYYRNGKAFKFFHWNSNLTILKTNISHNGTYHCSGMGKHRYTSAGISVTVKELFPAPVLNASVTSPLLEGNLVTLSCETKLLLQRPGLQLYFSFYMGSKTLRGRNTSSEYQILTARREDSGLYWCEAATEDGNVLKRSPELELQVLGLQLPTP
human FcγRIIb, His6-tagged (human), sequence (P31994 43-217 limits assumed): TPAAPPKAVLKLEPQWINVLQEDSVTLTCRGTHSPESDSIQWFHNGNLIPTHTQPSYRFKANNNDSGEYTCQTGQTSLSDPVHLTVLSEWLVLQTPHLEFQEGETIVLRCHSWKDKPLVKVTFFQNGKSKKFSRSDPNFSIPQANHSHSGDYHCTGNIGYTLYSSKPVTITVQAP

Broadly, the pKd is the negative decadic logarithm of the Kd, by convention in mol/L. On to isotype control human IgG4 (antibody), for which the pKd in test [1] was 8.03; in test [2], 4.64.
